Changes are numbered by the printed parent chain.
T1: cynoNectin4-mFc (cyno, UniProt A0A2K5WES1 32-349)
T1 construct: Immobilized on the SPR chip; also called cyanoNectin4; not shown: mFc (mouse Fc)
T1 sequence: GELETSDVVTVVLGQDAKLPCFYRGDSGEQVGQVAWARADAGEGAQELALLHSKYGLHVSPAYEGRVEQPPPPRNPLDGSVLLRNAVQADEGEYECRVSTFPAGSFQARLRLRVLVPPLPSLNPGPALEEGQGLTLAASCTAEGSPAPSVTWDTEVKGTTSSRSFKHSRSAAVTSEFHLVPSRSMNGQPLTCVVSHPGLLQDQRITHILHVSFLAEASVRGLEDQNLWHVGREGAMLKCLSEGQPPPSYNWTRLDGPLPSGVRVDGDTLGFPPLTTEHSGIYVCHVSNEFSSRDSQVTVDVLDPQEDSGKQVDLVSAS

T2: recombinant human Nectin4 antigen (human, UniProt Q96NY8 32-349)
T2 construct: construct not described
T2 sequence (looked up): T1 sequence with A39V, V230I

T3: cynoNectin4 antigen (cynomolgus (cyno), UniProt A0A2K5WES1 32-349)
T3 construct: construct not described; also called cynomolgus (cyno) Nectin-4
T3 sequence: T1 sequence

T4: huNectin4-His (human, UniProt Q96NY8 32-349)
T4 construct: Immobilized on the SPR chip; also called humanNectin4; human Nectin4; not shown: His tag
T4 sequence (looked up): T1 sequence with A39V, V230I

B1: BAP-143-wildtype (antibody, V domains shown)
VH: EVQLVESGGGLVQPGGSLRLSCAASGFTFSSYNMNWVRQAPGKGLEWVSYISSSSSTIYYADSVKGRFTISRDNAKNSLSLQMNSLRDEDTAVYYCARAYYYGMDVWGQGTTVTVSS
VL: DIQMTQSPSSVSASVGDRVTITCRASQGISGWLAWYQQKPGKAPKFLIYAASTLQSGVPSRFSGSGSGTDFTLTISSLQPEDFATYYCQQANSFPPTFGGGTKVEIK
notes: 150 kDa used in SPR; also called BAP143-00-00; benchmark (BM)
B2: BAP-143-06-24-16 (antibody, V domains shown)
VH: EVQLVQSGAEVKKPGATVKISCKVSGFTFSSYNMNWIRQSPSRGLEWLGYISSSSSTIYYADSVKGRFTISRDNSKNTLYLQMNSLRAEDTAVYYCARAYYYGDDVWGQGTLVTVSS
VL: B1 VL with R24H
notes: Used as a conjugate with a linker payload (CAB ADC)
B3: BAP-143-06-33-16 (antibody, V domains shown)
VH: B2 VH
VL: B1 VL with L33E
notes: as for B2
B4: BAP-143-00-01 (antibody, V domains shown)
VH: B1 VH
VL: B1 VL with L33E
notes: as for B2
B5: BAP-143-07-03-12 (antibody, V domains shown)
VH: B1 VH with V106K
VL: B1 VL with L33E
notes: as for B2
B6: BAP-143-00-06 (antibody, V domains shown)
VH: B1 VH with M104D
VL: B1 VL
notes: as for B2
B7: BAP-143-00-03 (antibody, V domains shown)
VH: B1 VH
VL: B1 VL with P96D
notes: as for B2
B8: BAP-143-00-05 (antibody, V domains shown)
VH: B1 VH with R98E
VL: B1 VL
notes: as for B2
B9: BAP-143-00-04 (antibody, V domains shown)
VH: B1 VH with M34D
VL: B1 VL
notes: as for B2
B10: BAP-143-06-33-03 (antibody, V domains shown)
VH: QVQLVQSGAEVKKPGASVKVSCKASGFTFSSYNMNWVRQARGQRLEWIGYISSSSSTIYYADSVKGRFTISRDNSKNTLYLQMNSLRAEDTAVYYCARAYYYGMDKWGQGTLVTVSS
VL: B1 VL with F94E
notes: as for B2

These binders were tested against T1, cynoNectin4-mFc (assay: SPR, cynoNectin4-mFc immobilized, pH 7.4).
Method: (§1) Binding kinetics of anti-Nectin4 antibodies were measured by surface plasmon resonance using a SPR2/4 instrument (Sierra Sensors, Hamburg, Germany) and flat amine sensor chips. The SPR sensor contained four flow cells (FC1-FC4), each of which was addressed individually or in groups. huNectin4-His was immobilized in FC2, and cynoNectin4-mFc in FC4. No protein was immobilized in FC1 and FC3 which were used as control surfaces for FC2 and FC4, respectively.
(§2) All injections were done at a flow rate of 25 μL/min at 25° C. The sensor surface was activated with 1-ethyl-3-(3-dimethylaminopropyl)-carbodiimide (EDC) and N-hydroxysuccinimide (NHS) (200 mM/50 mM) for 480 seconds. HuNectin4-His (2 μg/mL in 10 mM NaAc, pH4.5) was injected for 480s and the surface was inactivated by injecting 1M ethanolamine-HCl for 480s. CynoNectin4 was immobilized using the same conditions as described for huNectin4-His, except that the cynoNectin4 was diluted into 10 mM NaAc buffer having pH 5.0. The control surface was activated and deactivated using the same conditions, but without injecting protein. PBST buffer (PBS pH 7.4 with 0.05% TWEEN20™) was used as running buffer for the surface preparation. The running solution was switched to PBST with 30 mM sodium bicarbonate with the pH adjusted as indicated in the figures before the analyte injections. The instrument was equilibrated with the running solution for one hour before the first analyte injection.
(§3) The off-rate was measured for 360s. The chip surface was regenerated after each cycle of interaction analysis by injecting 6 μL of 10 mM glycine (pH 2.0). Flow cells 1 and 3 without immobilized protein were used as control surfaces for reference subtraction.

Kd | koff | kon | Binder
244 pM | – | – | B1
126 pM | 8.26e-05 s⁻¹ | 655000 M⁻¹ s⁻¹ | B2
2370 pM | 0.000175 s⁻¹ | 73900 M⁻¹ s⁻¹ | B3
3250 pM | 0.000781 s⁻¹ | 240000 M⁻¹ s⁻¹ | B4
1850 pM | 0.000651 s⁻¹ | 352000 M⁻¹ s⁻¹ | B5

Each binder was assayed against T2, recombinant human Nectin4 antigen (assay: ELISA, coated antigen, PSB pH 7.4).
Method: (§4) 1) Coat ELISA plates with 100 μL of 1 μg/mL recombinant human Nectin4 antigen or cynoNectin4 antigen in carbonate-bicarbonate coating buffer. […] 2) Cover plates with sealing film and incubate overnight at 4° C. [0444] 3) Decant plates and tap out residual liquid on a stack of paper towels. [0445] 4) Wash wells twice by dispensing 200 μL of pH 6.0 or pH 7.4 ELISA incubation buffer to the wells and completely aspirate the contents. [0446] 5) Add 200 μL of pH 6.0 or pH 7.4 ELISA incubation buffer to the wells. Cover with sealing film and place the plate onto a plate shaker set to 50 rpm for 60 minutes at room temperature. [0447] 6) Decant plates and tap out residual liquid on a stack of paper towels. […] 7) Serially dilute test articles in 3-fold dilutions starting at 3000 ng/mL in pH 6.0 or pH 7.4 ELISA incubation buffer. […] 8) Add 100 μL/well of diluted test articles to the plates [0450] 9) Cover with sealing film and place the plates onto a plate shaker set to 50 rpm for 60 minutes at room temperature. [0451] 10) Decant plates and tap out residual liquid on a stack of paper towels. [0452] 11) Wash wells three times by dispensing 200 μL of pH 6.0 or pH 7.4 ELISA wash buffer to the wells and completely aspirate the contents. […] 12) Dilute the HRP secondary antibody at 1:2500 in pH 6.0 or pH 7.4 ELISA incubation buffer. [0454] […] 14) Cover with sealing film and place the plates onto a plate shaker set to 50 rpm for 60 minutes at room temperature. […] 15) Decant plates and tap out residual liquid on a stack of paper towels. […] 16) Wash wells three times by dispensing 200 μL of pH 6.0 or pH 7.4 ELISA wash buffer to the wells and completely aspirate the contents. [0458] 17) Dispense 50 μL per well of the TMB substrate solution into all wells of the plates.

EC50 | Binder
0.0202 µg/mL | B1
0.0698 µg/mL | B6
0.245 µg/mL | B7
0.141 µg/mL | B8
0.061 µg/mL | B9

These binders were tested against T3, cynoNectin4 antigen (assay: ELISA, coated antigen, PSB pH 7.4).
Method: as §4

EC50 | Binder
0.0128 µg/mL | B1
0.0282 µg/mL | B2
0.0723 µg/mL | B10
0.086 µg/mL | B5

Each binder was assayed against T1, cynoNectin4-mFc (assay: SPR, cynoNectin4-mFc immobilized, pH 6.0).
Method: as §1, §2, §3

Kd | koff | kon | Binder
311 pM | – | – | B1
207 pM | 0.000579 s⁻¹ | 2.8e+06 M⁻¹ s⁻¹ | B2
187 pM | 0.000273 s⁻¹ | 1.46e+06 M⁻¹ s⁻¹ | B3
1850 pM | 0.00142 s⁻¹ | 769000 M⁻¹ s⁻¹ | B4
1150 pM | 0.00113 s⁻¹ | 983000 M⁻¹ s⁻¹ | B5

The binders below were run against T4, huNectin4-His (assay: SPR, huNectin4-His immobilized, pH 6.0).
Method: as §1, §2, §3

Kd | koff | kon | Binder
149 pM | – | – | B1
94.4 pM | 0.00033 s⁻¹ | 3.5e+06 M⁻¹ s⁻¹ | B2
110 pM | 0.000195 s⁻¹ | 1.77e+06 M⁻¹ s⁻¹ | B3
739 pM | 0.000771 s⁻¹ | 1.04e+06 M⁻¹ s⁻¹ | B4
690 pM | 0.000869 s⁻¹ | 1.26e+06 M⁻¹ s⁻¹ | B5

What follows are binders tested against T3, cynoNectin4 antigen (assay: ELISA, coated antigen, PSB pH 6.0).
Method: as §4

EC50 | Binder
0.0146 µg/mL | B1
0.0261 µg/mL | B2
0.0395 µg/mL | B10
0.0384 µg/mL | B3
0.0239 µg/mL | B5

What follows are binders tested against T2, recombinant human Nectin4 antigen (assay: ELISA, coated antigen, PSB pH 6.0).
Method: as §4

EC50 | Binder
0.0216 µg/mL | B1
0.0368 µg/mL | B2
0.0575 µg/mL | B10
0.0669 µg/mL | B3
0.0533 µg/mL | B5
